Laboratory results as given in the nanobody polyreactivity screen of Harvey et al. (2022).

Experiment: yeast display, Sf9 membrane polyspecificity reagent, FACS + sequencing; frameworks hold sequencing errors
Method in brief: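 Galactose-induced (36–48 hours) yeast carrying a synthetic nanobody display library were exposed to 10% biotinylated, detergent-solubilized Sf9 membrane reagent at 4 °C for 1 hour. FACS followed streptavidin microbead enrichment, using low and high (top ~1%) gates for expression (anti-HA) and reagent binding (streptavidin). Colony PCR, MiSeq 2 × 250 sequencing and CDR-length filtering followed. Labels for polyreactivity reflect the gate of origin.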

Sequence | polyreactivity (PSR sort gate)
QVLLQESGGGLVQAGGSLRLSCAASGSIFLFYTMGWYRQAPVKEREFVAGITLGTTTYNADSVKGRFTISRDNVKNTVYLQMNSLKPEATAVYYCAVAVGHYTVFWYWGQGTQVTMSS | high polyreactivity
QVQLVESGGGLVQAGGSLRLSCAASGNIFGVYAMGWYRQAPGKERELVAAIRYSTVSTYYADSVKGRFTISRDKAKNTVYLQMNSLKPQDTAVYNSAAHRYYWSLYGYDYWGHGTQVTVSS | high polyreactivity
QVQLVESGGGLVQAGGSLRLSCAASGFTFPIYAMGWYRQAPGKEREFVAAITRSGVSTYYADSVKGRFTISRDNAKNTVYLQMNSLKPEDTAVYYCAARYKGRAFWMDYWGQGTQVTVSS | high polyreactivity
LVQLVESGGGLVQAGGSLRVSCAASGLIIYDNAMGGYRQAPGKEREVVATISSGGRTYYADSVKGRFTISRDNAKNTVYLQMNSLKPEDTAVYYCAVDPGYSWYAQYDYWGQGTQVTVSS | low polyreactivity
QVQLVESGGGLVQAGGSLRLSCAASGFTFRLYAMGWYRQAPGKERELVATITRRGGITTYADSVKGRFTISRDNAKNTVYLQMNSLKPEDTAVYYCNAGKYVYATSQYDYWGQGTQVTVSS | high polyreactivity
QVQLVESGGGLVQAGGSLRLSCAASGITFNGYTMGWYRQAPGKEREFVAAITRRGGSTYYADSVKGRFTISRDNAKNTVYLQMNSLKPEDTAVYYCARVTRLGGGDYDYWGQGTQVTVSS | high polyreactivity
QVQLVESGGGLVQAGGSLRLSCAASGSIFDTYAMGWYRQAPGKERELVATITRSGARTYYADSVKGRFTISRDNAKITVYLQMNSLKTEDTAVYYCAALYYDDFGYEYDYWGQGTQVTVSS | low polyreactivity
QVQLVESGGGLVQAGGSLRLSCAASGITFRLYAMGWYRQAPGKERELVAAISKRGGSTYYADSVKGRFTISRDNAKNTVYLPMNSLKPDDTAVYYCAADSGWEHRYDYWGQGTQVTVSS | high polyreactivity
QVQLVESGGGLVQAGGSLRLSCSASGSTFKYNAKGWYIQETGKEWELVAYITRGGHTNYAVSVKGRFTISRDNAKNTVYLQMNRLKPEDTAVYYCAAVRPSVGFRGAWYPQYDYWGQGTQVTVSS | low polyreactivity
QVQLVESGGGLVQAGGSLRLSCAASGRIFDDYAMGWYRQAPGKEREFVAAISRSGASTYYADSVKGRFTISRDNAKNTVYLQMNSLKPEDTAVYYCAARAGANYRMDYWGQGTQVTVSS | high polyreactivity
QVQLVESGGGLVQAGGSLRLSCAASGYIFYRNAMGWYRQAPGKEREFVAAISSSGVSTYYADSVKGRFTISRDNAKNTVYLQMNSLKPEDTAVYYCAASYLTWKRRYDYWGQGTQVTVSS | high polyreactivity
QVQLVDSGGGLDQAGGSLRLSCAASGSTFYYNAMGWYRQPPGKARELVARISRSGGSTYADSVKGRFTISRDNAMNTVYLQMNSLKPEDTAVYYCNADADGTPEFTSYSVRYDYWGQGSQVTVSS | low polyreactivity
QGQLVESGGGLVQAGGSLRLSCAASGGIFSDYAMGWYIQEPGKEREFVAAISVRGTSTDYADSVKGRFTISRDNAKNTVYLQMNSLKPEDTAVYYCNAQGAPQVRDVLPYEFDYWGQGTQVTVSS | low polyreactivity
QVQLVESGGGLVQAGGSLRLSCAASGRTFEQYAMGWSRQAPGKERELVAAISGSGGSTFYADSVKGRFTISRDNAKNTVYLQMNSLKPEDTAVYYCNAPGDGYLYDHTYDYWGQGTQVTVSS | low polyreactivity
QVQLVESGGGLVQAGGSLSLSCAASGRIFAYYAMGWYRQAPGKERELVAGISQRGSRTYYADSVKGRFTISRDNGKNTVYLQMNSLKPEDTAVYYCAARDRRSVTMDYWGQGTQVTVSS | high polyreactivity
QVQLVESGGGLVQAGGSLRLSCAASGFTFGYNAMGWYRQAPGKERELVAVINKSGGSTYYADSVKGRFTISRDNAKNTVYLQMNSLKPEDTAVYYCAATYNGWKRYYYWGQGTQVTVSS | high polyreactivity
QVQLVESGGGLVQAGGSLRLSCAASGFTFLYYAMGWYRQAPGKEREVVAAISSGGSTYYADSVKGRFTISRDNAKNTVYLQMNSLKPEDTAVYYCNVRYTRNRWQYDYWGQGSQVTVSS | high polyreactivity
QVQLVESGGGLVQAGGSLRLSCAASGRIFYYYAMGWYRQAPGKERELVAAISSRGASTYYADSVKGRFTISRDNAKNTVYLQMNSLKPEDTAVYYCAASTPFRSTRYDYWGQGTQVTVSS | high polyreactivity
QVQHVESGGGLVQAGGSLRLSCAASGFTFSYNAMGWNRQAPGKERELVAAISATGDGNTYYADSVKGRFTISRDNAKNTVYLQMNSLNPEDTAVYFCNRLPQYALPYRHNGYWGQGTQVTVSS | low polyreactivity
QVHLVESGGGLVQAGGSLRLSCAASGSIFVAYAMGWYRQAPGKERELVAAISSSGGTTYYADSVKGRFTISRDNAMNTVYLQMNSLKPEDTAVYYCAARDYKFYYWGQGSQVTVSS | high polyreactivity
QVQLVESGGGLVQAGGSLRLSCAASGITFILNPMGWNRQAPGKEREFVAAISTSGGNTYYADSVKGRFTISRDYAKYTVYLEMNSLKPEDTAVYYCNADWGVVYISYSPEYDYWGHGTQVTVSS | low polyreactivity

Sequence | polyreactivity (PSR sort gate)
QVQLVESGGGLVQAGGSLRLSCAASGSTFWVYTMGWYRQAPGKERELVAAITLNGGSTYYADSVKGRFTISRDNAKNTVYLQMNSLKPEDTAVYYCAAYVFPFDKSYHYVGYDYWGQGTQVTVSS | low polyreactivity
QVQLVESGGGLVQAGGSLRLSCAASGGIFALNDMGWYRQAPGKERELVAAINGAGTYYADSVKGRFTISRDNAKNTVYLQMNSLKPEETAVYYCARRWLHWEYARTWTRVEYDYWGQGTQVTVSS | low polyreactivity
QVQLVESGGGLVQAGGSLRLSCAPSGSTFPQYAMGWYRQAPGKERELVADISSGVSTNYADSVKGRFTISRDNAKNTVYLLMNSLKPEDTAVYYCAAQAYVEGVYRYDYWGQGTQVTVSS | low polyreactivity
QVQLVESGGGLVQAGGSLRLSCAGSGRIFREYPMGAYRHAPGKARELVAAITASGGGTYYADSVKGRFTLSRDNAKNTVYLQMNSLKPEDSAVYYCNAVLAPGGYDYWGQGTQVTVSS | low polyreactivity
QVQLVESGGGLVQAGGSLRLSCAASGSTFSYYAMGWYRQAPGKERELVAAITTSGGRTYYADSVKGRFTISRDNAKFTVYLQMNSLKPEDTAVYYCNARSGRLGDYWGQGTQVTVSS | high polyreactivity
QVQLVESGGGLVQAGGSLRLSCAASGITFVRYAMGWYRQAPGKERELVATITRRGGSTYYADSVKGRFTISRDNAKNTVYLQMNSLKPEDTAVYYCAADAYIWLYTDFPAYDYWGQGTHVTVSS | high polyreactivity
QVQLVESGGGLVQAGGSLRLSCAASGSTFWYNAMGWYRQAPGTERELVATITNSGGSTYYADSVKGRFTISRDNAKNTVYLQMNSLKPEDTAVYYCATDVYSGALLKYDYWGQGTQVTVSS | low polyreactivity
QVQLVESGGGLVQAGGSLRLSCAASGRIFLYYAMGWYRQAPGKERELVAAISRRGASTYYADSVKGRFTISRDNAKNTVYLQMNSLKPEDTAVYYCATVPGKSGDYWGQGTQVTVSS | high polyreactivity
QVQLVESGGGLVQAGGSLRLSCAASGSTIQYYTMGWYRQAPGKERELVASITSGDSTNYADSVKGRFTISRDNAKNTVYLQMNSLKPEDTAVYYCARDRVSTQLQSSPAVSELYYWGQGTQVNVSS | low polyreactivity
QVQLVESGGGLVQAGGSLRLSCAASGSIFGGYAMGWYRQAPGKERELVAAISWSSSSTYYADSVKGRFTISRDNAKNTVYLQMNSLKPEDTAVYYCNAKPFYDYTEYDYWGQGTQVTVSS | low polyreactivity
QVQLVESGGGLVQAGGSLRLSCAASGITFWKYTMGWYIHAPGKERELVASITWSGGSTYYADSVKGRFTISRDNAKNTVYLQMNSLKPEDTAVYYCNAEYLRIDLDYWGQGTQVTVSS | low polyreactivity
QVQLVESGGGLVQAGGSLRLSCAASGRTFPYYAMGWYRQATGKERELVAAIRSSGDRTYYADSVKGRFTISRDNAKNTVYLQMNSLKPEDTAVYYCNKVFLRSRRYYWGQGTQVTVSS | high polyreactivity
QVPVVASGGGFVQAGGRLRLSCAASGRTFFYNAMGWYRQAPGKERESTYYADSVKGRFTISRDNAKNTVYLQMNSLKPEDTAVYYFAAATAYVAYEGDKGDYWGQGTQVTVSA | low polyreactivity
QVQLVESGGGLVQAGGSLRLSCAASGFTFFTYAMGWYRQAPGKERELVAAITSGGSTNYADSVKGRFTISRDNAKNTVYLQMNSLKPEDTAVYYCATRAYSDATTFYGYQRSDSWGQGTQVTVSS | low polyreactivity
QVQLVESAGGLVQAGGSLRLSCAASGSTFYFNAMGWYRQAPGKERELVAAISGGGGTNYADSVKGRFTISRDNAKNTVYLQMTSLKPEDTAVYYCAARNRGLRLSNYFGGNYNRDYWGQGTQVTVSS | low polyreactivity
QVQIVESGGALYQAGGSLRLICAASGSTFSQYAMGWYRQEPGKERELLPTINSGGSTNYADSVKGRFTISRDNAMNTVYLQMNSLKPEETAVYYCAAREDLYLYYNGQRVQYDYWGQGTQVTVSS | low polyreactivity
QVQLVESGGGLVQAGGSLRLSCAASGSTFDTNAMGWYRQPPGKERELVASISSAGSTNYADSVKGRFTISRDNAKNTVYLQMNSLKPEDTAVYYCAKYYGQFYPTTLGYWGQGTQVTVSS | low polyreactivity
QVQIEESGGGLVQAGGSLRLSCAASGSTFGYYAMGWYRQAPGKERELVAAISRGGSTYYADSVKGRFTISRDIAKYTVYLQMHSLKPEDTAVYYCNAVRYLEYDWGQGTQVTVSS | high polyreactivity
QVQLVESGGGLVQAGGSLRLSCAASGGILGVNAMGWYRQAPGKERELVAAISGRGGRTYYADSVKGRSTISRDNAKNTVYLQLNSLKPEDTAVYYCAVEFYSVARFPLWSYYWGQGTQVTVSS | high polyreactivity
QVQLVESCGGLVQAGGSLRLSCAASGITYVYYAMGWYRQAPGKERELVAGITSGTSTYYADSVKGRFTISRDNAKNTVYLQINSLKPEDTAVYYCATGYRRGSTYGYWGQGTQVTVSS | low polyreactivity
